Laboratory results taken from patent US9301997B2, “Method of vaccination for limiting articular inflammation in rheumatoid arthritis and multiple sclerosis by administering IL-23 peptides” (PEPTINOV SAS, priority 2009, dated 2016).
Each block holds one substance with its values, some of them ahead of it.

What was measured:
[1] = molecular target: T1, human IL-23 (Homo sapiens, UniProt Q9NPF7); assay: ELISA of purified rabbit antibodies on plates coated with human IL-23; assay type: binding; details: for Recognition of human IL-23 by antibodies raised against the peptide (ELISA): antibodies of immunized rabbits, result in words; for Average Titers50 (ELISA), SD: purified antibodies of rabbits immunized with the KLH-coupled peptide, plate coated with human IL-23, dilution yielding 50% of maximal OD
T1 sequence (Q9NPF7 20-189): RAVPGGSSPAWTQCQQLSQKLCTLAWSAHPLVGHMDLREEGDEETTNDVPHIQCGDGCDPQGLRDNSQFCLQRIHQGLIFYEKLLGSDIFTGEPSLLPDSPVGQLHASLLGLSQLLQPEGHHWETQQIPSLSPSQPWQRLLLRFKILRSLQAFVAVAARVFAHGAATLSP
T1 sequence (P29460 23-328 partner): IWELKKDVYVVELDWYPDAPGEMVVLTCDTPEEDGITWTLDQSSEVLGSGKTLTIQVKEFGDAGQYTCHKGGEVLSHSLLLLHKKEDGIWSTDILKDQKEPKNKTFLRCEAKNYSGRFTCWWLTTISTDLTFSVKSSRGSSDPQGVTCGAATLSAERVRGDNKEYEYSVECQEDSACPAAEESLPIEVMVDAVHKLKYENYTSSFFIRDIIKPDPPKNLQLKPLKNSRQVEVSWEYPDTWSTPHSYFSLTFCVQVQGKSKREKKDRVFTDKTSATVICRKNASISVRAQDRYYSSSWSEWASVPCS
Experimental: (§1) Specific-pathogen-free New Zealand rabbits (n=4) are immunized with 100 μg of a peptide derivative of human IL-23 by five immunizations in CFA/IFA at day 0, 14, 28, 56 and 70. The peptide, whose sequence is C-GSD IFT GEP SLL PDS PVG QL-C-Y, was coupled to KLH with BDB. The sera from immunized rabbits were taken at day 82 after initial immunization, and the antibodies were purified by affinity chromatography against protein A. The purified antibodies were tested by ELISA at various dilutions and on a plate coated either by human IL-23 or by murine IL-23 (cf. FIG. 1). The mean OD value of the […] purified sera is given at the various dilutions for the ELISA tests against murine IL-23 (dotted line) and against human IL-23 (regular line).
(§2) Four New Zealand rabbits were immunized with the cyclised peptide Y-C-KGE PAL LPD SP-C derived from the murine IL-23, similarly as in the protocol described in Example 1. The peptide was coupled with KLH via BDB and a supplementary tyrosine. The sera of the animals were purified by affinity column against protein A and the purified antibodies were tested in ELISA and in neutralisation assays. For ELISA, plates were coated either with murine or with human IL-23 and individual sera were tested at different dilutions to determine the Titer50. The titer corresponds to the dilution corresponding yielding an OD value at 50% of the maximal OD score (obtained for the smallest dilution, 1/50e). In parallel, different dilutions of the purified rabbit antibodies were tested on IL-23 neutralisation assays, similarly as in Examples 2, 3, and 4. Table 1 presents the average neutralisation obtained for the 4 purified antibodies rabbit at a dilution of 1/20 and in the presence of 1 ng/mL of bioactive mIL-23 or hIL-23.

[2] = molecular target: T1, human IL-23; assay: Neutralization assay for human IL-23 (IL-17 secretion by purified mouse splenocytes); assay type: cell-based; details: for Neutralization of the biological activity of human IL-23: purified IgG of immunized rabbits, result in words; for Average % neutralization, SD: purified rabbit antibodies at a dilution of 1/20, 1 ng/mL bioactive hIL-23
Experimental: The neutralization capacity of the purified total IgG fraction derived from the 4 immunized rabbits of example 1 was then tested in a neutralization assay for human IL-23. The test is based on the fact that purified mouse splenocytes secrete IL-17 in a dose dependent fashion, in response to the stimulation with bioactive human IL-23 (cf. FIG. 2). On the x-axis one can see the various dilutions of the IgG tested and on the y-axis the production of IL-17 as an optical density value. One sees that the IgG fraction of rabbits immunized against the peptide neutralize the biological activity of human IL-23 in a dose-dependent fashion. Each bar represents the mean of the tests performed with the 4 purified antibodies; the standard deviation is also indicated. The experimental conditions comprise two negative controls (no human IL-23 and no inhibitor) and a positive control with an anti-hIL-23 neutralizing antibody sold from the company R&D Systems (# ref: AF1716).
as §2

[3] = molecular target: T2, murine IL-23 (Mus musculus, UniProt Q9EQ14); assay: Neutralization assay for murine IL-23 (IL-17 secretion by purified mouse splenocytes); assay type: cell-based; details: purified IgG of immunized rabbits, result in words
T2 sequence (Q9EQ14 22-196): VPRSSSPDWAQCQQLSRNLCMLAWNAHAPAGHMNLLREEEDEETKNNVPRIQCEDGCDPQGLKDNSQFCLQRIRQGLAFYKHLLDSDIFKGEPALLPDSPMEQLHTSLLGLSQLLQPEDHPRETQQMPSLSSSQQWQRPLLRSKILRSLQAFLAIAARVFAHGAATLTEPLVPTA
T2 sequence (P43432 23-335 partner): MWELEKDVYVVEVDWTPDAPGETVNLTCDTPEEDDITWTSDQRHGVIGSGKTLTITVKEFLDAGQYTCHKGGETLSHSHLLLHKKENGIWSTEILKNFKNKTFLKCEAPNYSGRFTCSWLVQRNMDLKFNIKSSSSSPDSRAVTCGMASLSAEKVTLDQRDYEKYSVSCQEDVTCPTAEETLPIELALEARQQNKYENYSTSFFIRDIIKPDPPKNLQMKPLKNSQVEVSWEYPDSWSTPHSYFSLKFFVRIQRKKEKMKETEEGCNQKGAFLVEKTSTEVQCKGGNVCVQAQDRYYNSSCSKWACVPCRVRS
From the text: The same IgG fraction from 4 immunized rabbits used in example 2 is used for a test of neutralization of the murine IL-23 cytokine. The test for murine IL-23 is based on the fact that purified mouse splenocytes secrete IL-17 in a dose dependent fashion, in response to the stimulation with bioactive […] IL-23 (cf. FIG. 3). One sees that the IgG fraction of rabbits immunized against the human IL-23 peptide can neutralize the biological activity of murine IL-23 in a dose-dependent fashion. Each bar represents the mean of the tests performed with the 4 purified antibodies; the standard deviation is also indicated. There are two negative controls (no mouse IL-23 and no inhibitor) and a positive control with an anti-murine IL-23 neutralizing antibody sold from the company R&D Systems (# ref: AF1619).
(§3) Four New Zealand rabbits were immunized with the cyclised peptide Y-C-KGE PAL LPD SP-C derived from the murine IL-23, similarly as in the protocol described in Example 1. The peptide was coupled with KLH via BDB and a supplementary tyrosine. The sera of the animals were purified by affinity column against protein A and the purified antibodies were tested in ELISA and in neutralisation assays. For ELISA, plates were coated either with murine or with human IL-23 and individual sera were tested at different dilutions to determine the Titer50. […]

[4] = molecular target: T2, murine IL-23; assay: ELISA of purified rabbit antibodies on plates coated with murine IL-23; assay type: binding; details: antibodies of immunized rabbits, result in words
Experimental: as §1, §3

[5] = molecular target: T2, murine IL-23; assay: Auto-antibody response against murine IL-23 in immunized mice (serum ELISA); assay type: in vivo; details: OF1 mice immunized intra-muscularly, 100 μg/injection, sera tested at 1/500
Experimental: A peptide of murine IL-23 is coupled to KLH in the presence of a coupling agent (BDB). The peptide has been cyclised thanks to the addition of 2 cysteine residues coupled to BDB through an additional tyrosine; its amino-acid sequence is: C-DSD IFK GEP ALL PDS PME QL-C-Y. The vaccinal composition is injected intra-muscularly […] in ten (10) OF1 mice, at a dose of 100 μg/injection once every 2 weeks at days 0, 15, 30, 45. The sera of the animals are taken after the boosts at days 20, 38, 60 and 80 and are tested by ELISA at a dilution of 1/500 and on a coating of murine IL-23. The ELISA results are given as optical density (OD450nm) values. FIG. 5 presents the mean OD450nm value obtained at each time-point for the 10 mice tested. The grey line represents the response of mice immunized with the peptide derivative of IL-23 (triangles). The dotted lines represents the response of control mice immunized with the vehicle (empty grey diamonds), and control mice immunized with the carrier protein only (empty grey squares).

[6] = test system: experimental autoimmune encephalomyelitis; assay: Experimental autoimmune encephalomyelitis mouse model of multiple sclerosis, vaccination; assay type: in vivo; details: C57BL/6 mice, 100 μg/animal s.c. 4 times, 30 days follow-up, versus carrier and PBS groups, p=0.0003
Experimental: The experimental autoimmune encephalomyelitis in mice is a well-known model of multiple sclerosis. Three groups of 12 C57BL/6 mice were injected 4-times (s.c.) either with 1/100 μg/animal of the same peptide derivative of murine IL-23 as in example 9 coupled with KLH and emulsioned in CFA for the initial immunization and IFA (ISA51) for the subsequent boosts, or with 2/the carrier protein prepared in the same conditions, or with 3/PBS alone. The injections took pace at day 0, 15, 30 and 45.
To induce the experimental disease, mice were immunized (s.c.) at two sites with 200 μg of MOG peptide 35-55 in […] of Complete Freund's Adjuvant (CFA) at day 60. On the same day and after two days, mice were injected (i.p.) with, respectively 75 and 200 ng/mouse, of pertussis toxin (List Biological Laboratories). The mice were then assessed daily for clinical signs of EAE according to the following well-known scoring method (Sinha et al., J. Immunol., 2008): 0, normal; 0.5, limp tail; 1, tail paralysis; 2, mono or paraparesis of the hind limbs; 3, mono or paraplegia of the hind limbs; 4, paraplegia of the forelimb; 5, moribund condition or death. The follow-up was done on a period of 30 days as shown (cf. FIG. 7).

[7] = test system: collagen-induced arthritis; assay: Collagen-induced arthritis mouse model of rheumatoid arthritis, vaccination; assay type: in vivo; details: DBA/1 mice
From the text: The collagen-induced arthritis is a well-known model of rheumatoid arthritis, which reproduces the main features characterizing the human disease. The experimental disease is induced in the animal by two successive injections of type II bovine collagen in the tail. Clinical signs of disease occur a few days later, principally marked by a severe articular inflammation and the joint destruction. The articular inflammation can be quantified and reported as clinical scores by the person of the art: a score from 0 (no clinical sign) to 4 (total inflammation) is given for each articulation of each mouse. Groups of 10 mice are compared by the mean value of the scores obtained on […]. Similarly, the articular inflammation and destruction can be observed on histological sections of joints and be reported as histological scores by the person of the art.
DBA/1 mice (n=10 per treatment group) were vaccinated two weeks before the first injection of collagen either with the cyclised peptide derived from mIL23: C-DSD IFK GEP ALL PDS PME QL-C-Y (coupled with KLH via BDB and an additional tyrosine on the C-terminus), or with a control made of KLH alone, or with PBS alone. The injected dose in each mice corresponded to 100 μg of coupled peptide for the peptide group, and to 100 μg of KLH alone for the KLH control group, all in complete Freund's adjuvant. […]

Substance: DSD IFK GEP ALL PDS PME QL (DSDIFKGEPALLPDSPMEQL; Mus Musculus) [peptide derivative of mouse IL-23p19]
Recognition of human IL-23 by antibodies raised against the peptide (ELISA) [1]: could recognize both the murine and human IL-23 cytokines | Generation of anti-mIL-23 antibodies in mice [5]: anti-mIL-23 Abs could be generated in mice | Recognition of murine IL-23 by antibodies raised against the peptide (ELISA) [4]: could recognize both the murine and human IL-23 cytokines

Substance: C-DSD IFK GEP ALL PDS PME QL-C-Y
Clinical signs of EAE (disease activity score) [6]: statistically significant lower disease activity than the two control groups | Clinical scores of articular inflammation ([7]; 100 μg coupled peptide in CFA plus boosts in IFA, followed until day 80, versus KLH alone or PBS): statistically significant protection at the late stage of disease | Histological scores of articular inflammation and destruction ([7]; histological sections of joints): limits the extent of both the articular inflammation and destruction at the histological level

Substance: C-DSD IFK GEP ALL PDS PME QL-C
Neutralization of the biological activity of human IL-23 [2]: cross-neutralize hIL-23 | Neutralization of the biological activity of murine IL-23 [3]: can neutralize mIL-23

The next lines start with results.

Neutralization of the biological activity of murine IL-23 [3]: neutralize its biological activity
Substance: C-GSD IFT GEP SLL PDS PVG QL-C-Y (GSDIFTGEPSLLPDSPVGQL; not fully specified; terminal cysteines and C-terminal tyrosine; listed as Homo Sapiens) [peptide derivative of human IL-23 subunit p19, region Gly105 to Leu124, with two terminal cysteines and a C-terminal tyrosine]
Recognition of human IL-23 by antibodies raised against the peptide (ELISA) [1]: could generate antibodies recognizing the whole human IL-23 cytokine | Neutralization of the biological activity of human IL-23 [2]: could neutralize the biological activity of the human cytokine | Recognition of murine IL-23 by antibodies raised against the peptide (ELISA) [4]: could recognize the murine IL-23 cytokine

Average Titers50 (ELISA), SD [1]: 1758 ± 153 | Average % neutralization, SD [2]: 35 ± 7%
Substance: CTGEPSC (sub-sequence of seq ID NO2 with C-terminal and N-terminal cystein) [C-TGE PS-C, peptide 1 derived from hIL-23]

Average Titers50 (ELISA), SD [1]: 2287 ± 175 | Average % neutralization, SD [2]: 39 ± 11%
Substance: C-LPD SP-C-Y (CLPDSPCY; sub-sequence of seq ID NO2 with N-terminal cystein and C-terminal cystein and tyrosin) [CLPDSPC-Y, peptide 2 derived from hIL-23]
